B1: hIL-2Rg_VHH22 Mono-Fc VHH (Fc fusion, not shown: a dimerising Fc or GST)
chain: QVQLQESGGGLVQPGGSLRLSCTASGFSFSSYPMTWARQAPGKGLEWVSTIASDGGSTAYAASVEGRFTISRDNAKSTLYLQLNSLKTEDTAMYYCTKGYGDGTPAPGQGTQVTVSS
B2: hIL-2Rg_VHH19 Mono-Fc VHH (Fc fusion, not shown: a dimerising Fc or GST)
chain: QVQLQESGGGSVQAGGSLRLSCTASGFTFDDREMNWYRQAPGNECELVSTISSDGSTYYADSVKGRFTISQDNAKNTVYLQMDSVKPEDTAVYYCAADFMIAIQAPGAGCWGQGTQVTVSS
B3: hIL-2Rg_VHH21 Mono-Fc VHH (Fc fusion, not shown: a dimerising Fc or GST)
chain: QVQLQESGGGSVQAGGSLRLSCVASGYTSCMGWFRQAPGKEREAVATIYTRGRSIYYADSVKGRFTISQDNAKNTLYLQMNSLKPEDIAMYSCAAGGYSWSAGCEFNYWGQGTQVTVSS
B4: hIL-2Rg_VHH8 Mono-Fc VHH (Fc fusion, not shown: a dimerising Fc or GST)
chain: QVQLQESGGGSVQAGGSLRLSCVASGYTFSSYCMGWFRQAPGKEREGVAALGGGSTYYADSVKGRFTISQDNAKNTLYLQMNSLKPEDTAMYYCAAAWVACLEFGGSWYDLARYKHWGQGTQVTVSS
B5: hIL-2Rg_VHH15 Mono-Fc VHH (Fc fusion, not shown: a dimerising Fc or GST)
chain: QVQLQESGGGLVQPGGSLRLSCAASGFTFSSAHMSWVRQAPGKGREWIASIYSGGGTFYADSVKGRFTISRDNAKNTLYLQLNSLKAEDTAMYYCATNRLHYYSDDDSLRGQGTQVTVSS
B6: hIL-2Rg_VHH20 Mono-Fc VHH (Fc fusion, not shown: a dimerising Fc or GST)
chain: QVQLQESGGGSVQAGGSLRLSCTASGFTFDDSDMGWYRQAPGNECELVSTISSDGSTYYADSVKGRFTISQDNAKNTVYLQMNSLKPEDTAVYYCAAEPRGYYSNYGGRRECNYWGQGTQVTVSS
B7: hIL2Rb_VHH-8 (VHH)
VHH: QVQLQESGGGSVQVGGSLKLSCAASGYTYSSYYCMGWFRQAPGKEREGVAAIDSDGSTSYADSVKGRFTISQDDAKNTLYLQMNSLKPEDTAMYYCAASYEVVDCYPSGYGQDYWGKGTQVTVSS
notes: As a his-tagged phage clone periplasmic extract
B8: hIL2Rb_VHH7 Mono-Fc VHH (Fc fusion, not shown: a dimerising Fc or GST)
chain: QVQLQESGGGSVQAGGSLRLSCAASGYEYCRIHMTWYRQGPGKEREFVSSIGSDGRKTYANSVTGRFTISRDNANHTVYLQMNSLSPEDTAMYYCKTEYLYGLGCPDGSAYWGQGTQVTVSS
B9: hIL2Rb_VHH6 Mono-Fc VHH (Fc fusion, not shown: a dimerising Fc or GST)
chain: QVQLQESGGGSVQAGGSLRLSCAASEYTASRYCMAWFRQAPGKEREGVAAIHPGGGTTYYADSVKGRFSISQDSADNTLYLQMNSLKPEDTAMYYCAAGSLWVPFGDRCAANYWGQGTQVTVSS
B10: hIL2Rb_VHH5 Mono-Fc VHH (Fc fusion, not shown: a dimerising Fc or GST)
chain: QVQLQESGGGSVQVGGSLRLSCATSGDTKSIRCMGWFRQTPGKEREGIAAIDREGFATYADSVYDRFTIAQDNAQNTLYLEMNALKPEDTAMYYCAAQNMCRVVRGAMTGVDYWGKGTQVTVSS
B11: hIL2Rb_VHH3 Mono-Fc VHH (Fc fusion, not shown: a dimerising Fc or GST)
chain: QVQLQESGGGLVQPGGSLKLSCAASGFRFSNYGMSWVRQAPGEGLEWVSYINGDGSRTHYADSVKGRFTISRDNAKNTLYLQLNSLKTEDTAMYYCEKGLSRDGWSLSAASRGQGTQVTVSS
B12: hIL2Rb_VHH1 Mono-Fc VHH (Fc fusion, not shown: a dimerising Fc or GST)
chain: QVQLQESGGGSVQAGGSLRLSCVGSGYTYDTSDMSWYRQAPGKEREFVSDIDSGDWAAYADAVKGRFTISRDNAKKTVYLQMNSLEPEDTAMYYCKASYWKWGKLNNFWGPGTQVTVSS
B13: hIL2Rb_VHH4 Mono-Fc VHH (Fc fusion, not shown: a dimerising Fc or GST)
chain: QVQLQESGGGSVQTGGSLRLSCAVSGYTTYSFNYMGWFRQAPGKEREGVAVIYTGGGSTLYADSVKGRFTISQDNAKNTVYLQMNSLKPEDTAMYYCAADDQRFASPLYAYFGYWGQGTQVTVSS
B14: hIL2Rb_VHH2 Mono-Fc VHH (Fc fusion, not shown: a dimerising Fc or GST)
chain: QVQLQESGGGLVQPGGSLRLSCVASGFTFSNYWIFWVRQAAGKGLEWLSTSNTGGDTTKYADSVKGRFTISRDSAKNTEYLQMNSLKPEDTAVYYCETGRCARSGGYQGTQVTVSS
B15: hIL2Rb_VHH8 Mono-Fc VHH (Fc fusion, not shown: a dimerising Fc or GST)
chain: B7 VHH

Each binder was assayed against T1, hIL2Rg-his (Sino Biological, Catalog# 10555) (human, UniProt P31785 23-262) (assay: SPR; ratio of experimental to calculated Rmax).
T1 construct: Bought; also called extracellular domain of hIL2Rg
T1 sequence: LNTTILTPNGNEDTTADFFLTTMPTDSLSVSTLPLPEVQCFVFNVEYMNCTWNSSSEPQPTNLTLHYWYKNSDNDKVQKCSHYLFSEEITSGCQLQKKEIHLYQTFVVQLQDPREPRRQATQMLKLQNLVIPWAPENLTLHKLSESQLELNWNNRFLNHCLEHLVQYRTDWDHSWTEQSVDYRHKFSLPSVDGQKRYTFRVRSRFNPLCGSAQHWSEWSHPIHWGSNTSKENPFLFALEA
Source text: (§1) To confirm and evaluate binding affinities of the binding of the IL2Rg sdAbs, a representative example from each clonotype generated was selected for evaluation of binding via SPR. […] Buffer-subtracted sensograms were processed with Biacore T200 Evaluation Software and globally fit with a 1:1 Langmuir binding model (bulk shift set to zero) to extract kinetics and affinity constants (kₐ, kd, KD). RMAX<100 RU indicates surface density compatible with kinetics analysis. Calculated Rₘₐₓ values were generated using the equation: Rmax=Load (RU)×valency of ligand×(Molecular weight of analyte/Molecular weight of ligand). Surface activity was defined as the ratio of experimental/calculated Rmax.
Calculated Rmax were generated using the equation Rmax=Load (RU)×valency of ligand×(Molecular weight of analyte/Molecular weight of ligand. Surface activity was defined as the ratio experimental/calculated Rmax. See tables 16 and 17 below for sample information and experimental results.

Binder | Surface Activity [%]
B1 | 108
B2 | 33
B3 | 6
B4 | 110
B5 | 73
B6 | 48

What follows are binders tested against T2, hIL2Rb ECD antigen (human, UniProt P14784 27-240) (assay: PE-ELISA of phage clones).
T2 construct: The immunogen was the ECD fused to human IgG1 hinge and Fc; also called ECD of IL2Rb (human); human IL-2Rβ
T2 sequence: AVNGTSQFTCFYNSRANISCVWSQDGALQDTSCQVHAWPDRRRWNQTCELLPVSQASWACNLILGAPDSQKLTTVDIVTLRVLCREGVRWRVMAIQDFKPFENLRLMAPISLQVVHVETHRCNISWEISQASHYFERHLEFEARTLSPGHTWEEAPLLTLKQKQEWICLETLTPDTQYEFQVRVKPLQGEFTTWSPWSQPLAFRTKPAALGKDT

Binder | binding result
B7 | binds

Each binder was assayed against T3, hIL2Rb-his (human, UniProt P14784 27-240) (assay: SPR Biacore T200; Mono-Fc VHH captured on Protein A chip, hIL2Rb-his analyte; 1:1 Langmuir fit).
T3 sequence: T2 sequence
Experimental: (§2) A representative example from each hIL2Rb VHH clonotype generated as descried above was selected for evaluation of binding via SPR as follows. Evaluation of binding affinity of the hIL2Rb binding molecules shown in Table 16 was conducted using surface plasmon resonance (SPR) in substantial accordance with the following procedure. All experiments were conducted in 10 mM Hepes, 150 mM NaCl, 0.05% (v/v) Polysorbate 20 (PS20) and 3 mM EDTA (HBS-EP+ buffer) on a Biacore T200 instrument equipped with a Protein A derivatized sensor chip (Cytiva). Mono-Fc VHH ligands were flowed at 5 μl/min for variable time ranging from 18 to 300 seconds, reaching the capture loads listed in the tables below. Following ligand capture, injections of a 2-fold dilution series of the extracellular domain of the IL2Rb-receptor modified to incorporate a C-terminal poly-His sequence, typically comprising at least five concentrations between 1 μM and 1 nM, were performed in either high performance or single cycle kinetics mode. Surface regeneration was achieved by flowing 10 mM glycine-HCl, pH 1.5 (60 seconds, […]). Buffer-subtracted sensograms were processed with Biacore T200 Evaluation Software and globally fit with a 1:1 Langmuir binding model (bulk shift set to zero) to extract kinetics and affinity constants (kₐ, kd, KD). RMAX<100 RU indicates surface density compatible with kinetics analysis. Calculated Rₘₐₓ values were generated using the equation: Rmax=Load (RU)×valency of ligand×(Molecular weight of analyte/Molecular weight of ligand). Surface activity was defined as the ratio of experimental/calculated Rmax.

Binder | Kd [nM] | koff [s⁻¹] | kon [M⁻¹ s⁻¹]
B8 | 1.1 | 0.00317 | 2.86e+06
B9 | 1.2 | 0.0229 | 1.9e+07
B10 | 0.4 | 0.00154 | 3.82e+06
B11 | 47 | 0.00699 | 157000
B12 | 1 | 0.0199 | 1.98e+07
B13 | 3.4 | 0.00205 | 600000
B14 | 16 | 0.00224 | 139000

Each binder was assayed against T1, hIL2Rg-his (Sino Biological, Catalog# …) (assay: SPR Biacore T200; Mono-Fc VHH captured on Protein A chip, hIL2Rg-his analyte; 1:1 Langmuir fit).
Source text: as §1
All experiments were conducted in 10 mM Hepes, 150 mM NaCl, 0.05% (v/v) Polysorbate 20 (PS20) and 3 mM EDTA (HBS-EP+ buffer) on a Biacore T200 instrument equipped with a Protein A chip (Cytiva). Mono-Fc VHH ligands were flowed at 5 μl/min for variable time ranging from 18 to 300 seconds, reaching the capture loads listed in the tables below.
Following ligand capture, injections of a 2-fold dilution series of his-tagged cytokine receptors typically comprising at least five concentrations between 1 μM and 1 nM were performed in either high performance or single cycle kinetics mode. Surface regeneration was achieved by flowing 10 mM glycine-HCl, pH 1.5 (60 seconds, 50 μL/min). Buffer-subtracted sensograms were processed with Biacore T200 Evaluation Software and globally fit with a 1:1 Langmuir binding model (bulk shift set to zero) to extract kinetics and affinity constants (kₐ, kd, KD). RMAX<100 RU indicates surface density compatible with kinetics analysis.

Binder | Kd [nM] | koff [s⁻¹] | kon [M⁻¹ s⁻¹]
B1 | 6.4 | 0.00354 | 554000
B2 | 2.4 | 0.00693 | 2.85e+06
B3 | 17.2 | 0.00113 | 65600
B4 | 2.2 | 0.000812 | 366000
B5 | 26 | 0.00251 | 96800
B6 | 14.1 | 0.0027 | 192000

These binders were tested against T3, hIL2Rb-his (assay: SPR; ratio of experimental to calculated Rmax).
Experimental: as §2

Binder | Surface Activity [%]
B8 | 43
B9 | 53
B10 | 42
B11 | 52
B12 | 37
B13 | 96
B14 | 26
B15 | < 5

— patent publication US20250019453A1 (SYNTHEKINE, published 2025)
